From patent publication US20070036810A1, “Cyclic amp response element activator proteins and uses related thereto” (priority 2003, published 2007)

Experiments:
Type in all cases: cell-based
GAL4-CREB fusion protein = assay: GAL4-CREB activation assay in HLR cell line; conditions: HLR cell line with integrated pFR-Luc reporter, normalized to pCMV-BD vector
Protocol: To determine if CREAP proteins can directly activate CREB1 protein, the expression constructs of CREAP1, CREAP2 and CREAP3 were transfected individually or with GAL4-CREB plasmid (Stratagene) into HLR cell line (Stratagene) carrying genomic DNA integrated copies of pFR-Luc reporter. Briefly, HLR cells were maintained per manufacturer's instructions. Selected plasmids and either empty vector (pCMV-BD) or GAL4-CREB plasmid were transfected at 75 ng/well using Fugene6 transfection reagent (Roche) as described above. As a positive control pFC-PKA an expression construct encoding catalytic subunit of protein kinase A (Stratagene) was also co-trasfected with GAL4-CREB. Fold of activation was compared to the reporter's activity measured in the cells transfected with empty vector.
The ability of full length CREAP1, CREAP2 and CREAP3 to induce the activity of GAL4-CREB fusion protein (Stratagene) was tested. The data presented are normalized to the value seen with pCMV-BD vector. […] Note the fold induction obtained with positive control is lower when compared to the data from Table 6 when all the plasmids including the reporter were transiently transfected.

[1] = system: GAL4 DNA binding sites (UAS-Luc, pFR-Luc reporter); assay: GAL4 DNA binding domain fusion transactivation assay (pFR-Luc) in HEK 293 cells; conditions: normalized to pCMV-BD vector
Text: To determine if CREAP proteins can act as a transcription activators, various regions of all 3 CREAP homologs (amino acids 300-650 of CREAP1, amino acids 296-694 of CREAP2 and amino acids 335-635 of CREAP3) were expressed as fusion proteins with the DNA binding domain of GAL4 and tested for the ability to activate expression of a reporter gene linked to GAL4 protein binding sequences (UAS-Luc (pFR-Luc reporter). Briefly, the indicated regions of CREAP1, CREAP2 and CREAP3 were amplified by PCR and subcloned in frame into pCMV-BD vector (Stratagene) encoding GAL4 DNA binding domain. Selected plasmids and empty vector (pCMV-SPORT6) were transfected into HEK 293 cells at 75 ng/well using Fugene6 transfection reagent (Roche) as described above. pFR-Luc reporter (Stratagene) encoding firefly luciferase gene driven by minimal promoter linked to 5 concatamerized GAL4 binding sites (UAS) was co-transfected at 100 ng/well. As a positive control, the reporter was also co-transfected with a plasmid encoding GAL4-CREB fusion protein (Stratagene) alone or in the presence of pFC-PKA an expression construct encoding catalytic subunit of protein kinase A (Stratagene) to activate the CREB kinase inducible activation domain. Fold induction was compared to the reporter's activity measured in the cells transfected with pCMV-BD an expression vector carrying GAL4 DNA binding domain only. […]

human IL-8 promoter = assay: pGL2-IL-8p-Luc reporter inducibility in HEK 293 cells; conditions: HEK 293 cells treated with 50 ng/ml for 16 hours
Protocol: A luciferase reporter controlled by a 1.5 kB IL-8 promoter containing fragment of human IL-8 promoter was tested for inducibility by known regulators of cytokine-mediated gene expression. pNF-κB-Luc (BD Biosciences) and pGL2-IL-8p-Luc reporters were co-transfected into HEK 293 cells with expression constructs encoding known activators of the NF-κB pathway, truncated MEKK (AA 360-672) (Stratagene) and a full length TRAF6 cDNA made according to conventional methods using a proprietary clone collection. Cells co-transfected with empty pCMV-Sport6 vector were either left untreated or treated with TNFα (50 ng/ml, for 16 hours). Luciferase activity was measured 48 hours post transfection. The pNF-κB-Luc reporter was used as a positive control.

[2] = system: secreted IL-8 protein from HeLa cells; assay: IL-8 Elisa assay in HeLa cells; conditions: after transfection
Protocol: HeLa cells are transfected with DNA samples selected from the group of sequence verified and confirmed hits at 100 ng per well in 96 well plates (Costar) using the protocol described above. DNA samples designated as co-activators are co-transfected at 25 ng per well. Empty vector pCMV-Sport6 is used as a negative control. 72 hours post-transfection IL-8 content is measured in the cell growth media in prediluted aliquots corresponding to 1 to 5 μl of conditioned growth media using an IL-8 Elisa kit (Sigma) following the provided protocol. As a positive control, growth media is collected from the cells transfected with empty vector and treated with IL-1β and TNFα (R&D Systems) at 5 ng/ml and 50 ng/ml respectively for 16 hours prior to collection of the growth media for the IL-8 assay.

GAL4-CREB: plasmid encoding GAL4-CREB fusion protein (Stratagene) [reference compound]
Fold Induction (GAL4-CREB fusion protein): 75.55
Fold Induction [1]: 7.66

TNFα [reference compound]
increase of IL-8 promoter-reporter activity (human IL-8 promoter): 4.7 times

relA: subunit of NF-κB transcription factor, expression construct [reference compound]
accumulation of secreted IL-8 protein [2]: induced small increases
